Data: paper PMC8857481

Biological target: FLAG-METTL5-G61D (human) (UniProt Q9NRN9)
Experiment: co-IP; anti-FLAG M2 beads in clarified lysate of transfected HeLa cells, 1 h at 4 °C; 50 mM Tris pH 7.4, 150 mM NaCl, 10% glycerol, 1.5 mM MgCl2, 0.5 mM EDTA, 0.2% NP-40, 1 mM DTT; three washes; Western blot with anti-FLAG and anti-TRMT112

Sequence of UniProt Q9NRN9 (Q9NRN9 whole entry G61D): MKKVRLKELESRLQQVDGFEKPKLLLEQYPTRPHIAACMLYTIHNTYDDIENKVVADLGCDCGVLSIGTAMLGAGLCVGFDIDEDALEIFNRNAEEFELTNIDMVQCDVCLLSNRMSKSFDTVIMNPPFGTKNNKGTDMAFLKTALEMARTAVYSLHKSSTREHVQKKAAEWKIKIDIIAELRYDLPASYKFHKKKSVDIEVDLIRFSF

- TRMT112 bound relative to that bound to FLAG-METTL5-WT: 5 to 15%
B1: TRMT112 (natural protein)
chain: MKLLTHNLLSSHVRGVGSRGFPLRLQATEVRICPVEFNPNFVARMIPKVEWSAFLEAADNLRLIQVPKGPVEGYEENEEFLRTMHHLLLEVEVIEGTLQCPESGRMFPISRGIPNMLLSEEETES
